First the molecules themselves.
B2: N-terminally palmitoylated MPER peptide (peptide)
peptide: Palmitoyl-DLLELDKWASLWNWFNITNWLWYIK

Targets include 203; 274; 484; 275.
What all share (assay): SPR; liposome-bound MPER
A general note: Surface plasmon resonance follows binding to a sensor surface in real time, without labels.

The target of assay [1] is B2.

Where no end group is shown, it is not given here. The star is where a group is joined. Palmitoyl = CCCCCCCCCCCCCCCC(=O)*

B1: rmAb 460 IgG1 (antibody, V domains shown)
VH: EVQLQQSGAELVKPGASVKLSCTASGFNIKDTYMHWVKQRPEQGLEWIGRIDPANGNTKYDPKFQGKATITADTSSNTAYLQLSSLTSEDTAVYFCTRSRGYFGNYYFDYWGQGTTLTVSS
VL: QIVLTQSPAVMSASPGERVTMTCSASSSVSYMYWYQQKPRSSPKPWIYLTSNLASGVPARFSGSGSGTSYSLTISSMEAEDAATYYCQQWSSIPLTFGAGTKLELK
One may read the Kd as a measure of binding affinity in units of concentration. High values mean lower affinity, low ones higher affinity. For B1, binding in assay [1] was characterised by a dissociation constant (Kd) of 14 nM.

Regarding B2, the Kd was found to be 29 nM with 203, 63 nM with 274, 5.5 nM with 484 and 18 nM with 275.

B3: rmAb 235 IgG1 (antibody, V domains shown)
VH: QVQLQQSGTDLVRPGTSVKVSCKASGYAFTTYFIEWVKQRPGQGLEWIGVINPGSGIPNYNEMFKGKATLTADKSSSTAYLHLSSLTSDDSAVYFCARAPYYYGSSYYYFDVWGAGTTVTVSS
VL: DIVMSQSPSSLAVSVGEKVTMSCKSSQSLLYSSNQKNYLAWYQQKPGQSPKLLIYWASTRDSGVPDRFTGSGSGTDFTLTISSVKAEDLAVYCCQQYYNYPFTFGAGTKLEIK
Consider B3, for which the Kd in assay [1] stood at 11 nM.

(Values after article PMC10632514 (2023).)
